The values that follow come from paper PMC10579229 (Nature Communications, 2023).

Data set [1] deals with the molecule itself. Kind of data set: crystal structure; P-domain and M4 mixed 1:1.5, complex peak from S200 gel filtration; crystals at 20 °C in 2% Tacsimate pH 4.0, 0.1 M sodium acetate pH 4.6, 16% PEG 3350; 2.87 Å. On the technique in general: SEC sorts molecules by how far they enter the pores of the column.
The target in data set [2] is capsid protein VP1 of GII.4 New Orleans HuNoV (human norovirus GII.4 (New Orleans)).
For data set [3], the target named is capsid protein VP1 of GII.4 Den Haag HuNoV (human norovirus GII.4 (Den Haag)).

B1: GII.4 Sydney 2012 P-domain (protruding domain of the capsid protein VP1) (domain or fragment)
chain: ESRTKPFSVPVLTVEEMTNSRFPIPLEKLFTGPSSAFVVQPQNGRCTTDGVLLGTTQLSPVNICTFRGDVTHITGSRNYTMNLASQNWNDYDPTEEIPAPLGTPDFVGKIQGVLTQTTRTDGSTRGHKATVYTGSADFAPKLGRVQFETDTDRDFEANQNTKFTPVGVIQDGGTTHRNEPQQWVLPSYSGRNTHNVHLAPAVAPTFPGEQLLFFRSTMPGCSGYPNMDLDCLLPQEWVQYFYQEAAPAQSDVALLRFVNPDTGRVLFECKLHKSGYVTVAHTGQHDLVIPPNGYFRFDSWVNQFYTLAPMG
modifications: biotin (EZ-Link NHC-LC-LC-biotin), in the BLI only
notes: also called GII.4 P-domain; GII.4 Sydney P-domain; source: E. coli BL21(DE3), purified (His-Trap, TEV cleavage, His-Trap, MBPTrap, SEC); not shown: His6, N-terminal, cleaved; MBP, N-terminal, cleaved
B1: the “stoichiometry N” value in data set [1] came to 2.

B2: nanobody M4 (VHH)
VHH: QVKLQQSGGGLVQPGGSLRLSCAASESTISINTLGWYRQAPGNQRELVATITTGGTTNYADSVKGRFTISRDNAKNTVYLQMNNLEPGDTAVYYCNLKRRDLQSRFGGYWGQGTQVTVSS
As for B2, the IC50 of neutralisation of GII.4 New Orleans HuNoV (stool filtrate, 100 TCID50) in J4 FUT2 human intestinal enteroid monolayers; viral genome equivalents by RT-qPCR at 24 hpi in data set [2] turned out to be 0.056 µg/mL. In data set [3], the IC50 of neutralisation of GII.4 Den Haag HuNoV (stool filtrate, 100 TCID50) in J4 FUT2 human intestinal enteroid monolayers; viral genome equivalents by RT-qPCR at 24 hpi was determined as 0.379 µg/mL.

For orientation: stoichiometry N means the number of molecules, sites or subunits per partner or assembly.
